The text below walks through data of the supplement of paper PMC9170038.

This data set relates to MS2 coat protein. Briefly: apparent KD of MS2 coat protein; higher = weaker reporter binding. Particulars: Eterna round: R107. The gist of the method:
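Apparent KD stands for the median, per design, of fits to normalised cluster binding curves. The curves came from titrating on-chip-transcribed RNA switches on Illumina sequencing clusters with SNAP-549-labelled MS2 coat protein, twofold from 0.7 or 1.5 nM to 3 µM. Buffer was 100 mM Tris-HCl pH 7.5, 80 mM KCl, 4 mM MgCl2, without or with constant ligand.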

Setting [1] is: input ligand: theophylline 20 uM.
Where [2] appears, read: input ligand: tryptophan 2.4 mM.
Where [3] appears, read: input ligand: theophylline 2 mM.

For the sequence “AUUAAUUGUCGUGAUACCAGACUUACAUGAGGAUCACCCAUGUUACUUAAGAUUUUUGUUGUCCCUUGGCAGCACUUUUUAAUUA [JR_Nu_ExcTheophyB_Sub024]”, the “apparent KD of MS2 coat protein” value was 24.5 nM (input ligand: arginine 13.2 mM), 33 nM under setting [1] and 23.3 nM under setting [2].
For the sequence “UUGCCCAGUACGGCCGCCACUGUGUGCAGGGAGCCCAGGUCCACAUGAGGAUCACCCAUGUACAACAGGACCGGGUACUUGCAAU [Usdizaqu]”, the “apparent KD of MS2 coat protein” value came out at 7.54 nM (input ligand: arginine 13.2 mM), 12.7 nM under setting [1] and 11.8 nM under setting [3].
Turning to “GGGCGCGUGGACUGGCGUGCUCCGCUCCGUCGAGGACCGGUACGGCCGCCACUCGACAUGAGGAUCACCCAUGUGUGAGCUCGCG [#1 Exclusion - Tryptophan A Attempt #17 (HarryS)]”, the “apparent KD of MS2 coat protein” value runs as follows: (input ligand: arginine 13.2 mM) 62.9 nM; under setting [1], 229 nM; under setting [3], 259 nM.
For “UUUGACGGCGAUCUGGGUUUACCAGAUCGGCGAGGACCGGUACGGCCGCCACUCGUGUUUCUUUGACAUGAGGAUCACCCAUGUA [whbob_SS_trypto A_f2]”, in that order: 38.4 nM, 57.3 nM and 60.5 nM.
With “GAUCCUCAUACGGAUACCAGCGAAUAACAUGAGGAUCACCCAUGUAAUAAAGAAAAUAAAUGCCCUUGGCAGCCGAAUAGAUAGU [Same State Theophylline B GF 1]”, the “apparent KD of MS2 coat protein” value worked out at 36.2 nM (input ligand: arginine 13.2 mM), 137 nM under setting [1] and 91.1 nM under setting [2].
With “UCAUGCAGGUCGGCCGCCACUACACACAUGAGGAUCACCCAUGUAGUUACUGGGUGAAGUGGCAGUAGGACCGGGACCUGCACAC [Brourdmod17]”, the “apparent KD of MS2 coat protein” value reads like this: (input ligand: arginine 13.2 mM) 155 nM; (input ligand: none) 504 nM; under setting [1], 632 nM; under setting [3], 849 nM; under setting [2], 1090 nM.
For “GAGCGCGUGGACUGGCGUGCUCCGCUCCGUCGAGGACCGGUACGGCCGCCACUCGACAUGAGGAUCACCCAUGUGCGCGCUCGCU [#1 Exclusion - Tryptophan A Attempt #23 (HarryS)]”, in that order: 7.37 nM, 27 nM, 177 nM, 27.8 nM and 19.8 nM.
Consider “CGAUAUGAGGUCGAUACCAGCAGCUUCAAGCACAUGAGGAUCACCCAUGUCCAUUUUACUUGCCCUUGGCAGCGACUUUGGAAAC [theeternabot_sameState_MS2_Theo_B_23]”, for which the “apparent KD of MS2 coat protein” value stood at 36.2 nM (input ligand: arginine 13.2 mM), 34.9 nM under setting [1] and 38.4 nM under setting [2].
In the case of “GAUUUUACAAAAGUAAAAUCAGUGGGUGAACGAGGACCGGUACGGCCGCCACUCGGACAUGAGGAUCACCCAUGUCCAUGUGAAA [AstrosExyTryA#21]”, the “apparent KD of MS2 coat protein” value came to 17.1 nM (input ligand: arginine 13.2 mM); 15.7 nM (input ligand: none); 18.4 nM under setting [1]; 20.6 nM under setting [3]; 61.9 nM under setting [2].
With “GGUUGAUGACAUGAGGAUCACCCAUGUAGGCGAGGACCGGUACGGCCGCCACUCGACAUGAGGAUCACCCAUGUCGGCGUCCGUG”, the “apparent KD of MS2 coat protein” value reads like this: (input ligand: arginine 13.2 mM) 14.3 nM; under setting [1], 19.9 nM; under setting [3], 18 nM.
For “UUAUAAGUACCGGUCCUCAGAUCCUCAUGACGAGGACCGGUACGGCCGCCACUCGAAACAUGAGGAUCACCCAUGUAAUAACAUU [Brourdmod19]”, in that order: 18.9 nM, 28.8 nM and 25.6 nM.
In the case of “GCACCAGGUACGGAUACCAGCUGCCAUAGUUACAUGAGGAUCACCCAUGUGAUCUAUUGUAGCCCUUGGCAGCUGUACCUGGUGC [SSThB NP+V+V2 #5 Same Structure]”, the “apparent KD of MS2 coat protein” value (input ligand: arginine 13.2 mM) amounted to 71.2 nM, the “apparent KD of MS2 coat protein” value under setting [1] was found to be 398 nM and the “apparent KD of MS2 coat protein” value under setting [2] was determined as 46.8 nM.
Take “AUGGACGACGAUCUGGGAAAACCAGAUCGACGAGGACCGGUACGGCCGCCACUCGUGUUUAUUUAACAUGAGGAUCACCCAUGUA [#13 Tryptophan A Same State]”: the “apparent KD of MS2 coat protein” value runs as follows: (input ligand: arginine 13.2 mM) 34 nM; under setting [1], 55.7 nM; under setting [3], 65.5 nM.
On to “GCUGCCAUACGAAGGAGCGCUGUUGCAAUGAGGCGAACAUGAGGAUCACCCAUGUGGCAAAAGCAGGUAGGUCGCGUAUGGCAGC [EAB #17]”, for which the “apparent KD of MS2 coat protein” value was 20.4 nM (input ligand: arginine 13.2 mM); 20.5 nM (input ligand: none); 29.3 nM under setting [1]; 23.4 nM under setting [3]; 20.2 nM under setting [2].
“UAAUGCAGGUCGGCCGCCACUACACACAUGAGGAUCACCCAUGUAGUUACUGGGUGAAGUGGCAGUAGGACCGGGACCUGCAUAA [Brourd01]”: the “apparent KD of MS2 coat protein” value came out at 185 nM (input ligand: arginine 13.2 mM), 467 nM under setting [1] and 873 nM under setting [3].
“GGGCCUAUCUGAAGGAGCGACAUGAGGAUCACCCAUGUCUCCCGUUAUGGGAGUUCUUUAGGUCAGGUAGGUCGCAGGUAGGGCC [#1 Exclusion - Arginine B Attempt #5 (Inspired by Omei)]”: the “apparent KD of MS2 coat protein” value (input ligand: arginine 13.2 mM) was found to be 12.2 nM; the “apparent KD of MS2 coat protein” value (input ligand: none) was 14.7 nM; the “apparent KD of MS2 coat protein” value under setting [1] is 19 nM; the “apparent KD of MS2 coat protein” value under setting [3] worked out at 15.2 nM; the “apparent KD of MS2 coat protein” value under setting [2] came to 15 nM.
As to “CCAUCUACAUCGGCCGCCACUGAACCAAGGAGACAUGAGGAUCACCCAUGUAUGGGAAACCAUCAUAGGACCGGGAUGAUCUACC [doubleHook]”, the “apparent KD of MS2 coat protein” value came to 95.2 nM (input ligand: arginine 13.2 mM), 336 nM under setting [1] and 415 nM under setting [3].
Take “UGUAUGUGAUCUGAUACCAGUCCAACUGGUAAAGCAUGAGGAACACCCAUGCAAAAUUGGGACCCUUGGCAGCAGAUCGCAUACU”: the “apparent KD of MS2 coat protein” value (input ligand: arginine 13.2 mM) turned out to be 169 nM; the “apparent KD of MS2 coat protein” value (input ligand: none) amounted to 247 nM; the “apparent KD of MS2 coat protein” value under setting [1] is 255 nM; the “apparent KD of MS2 coat protein” value under setting [3] is 34.6 nM; the “apparent KD of MS2 coat protein” value under setting [2] was determined as 278 nM.
Turning to “GUGUUUGUGUGAGAUACCAGUGAGGCCACAUGAGGAUCACCCAUGUCCCUCACUCCGGCCCACCCUUGGCAGCUCUUAUAGUAGU [Exclusion Theophylline B GF 23]”, the “apparent KD of MS2 coat protein” value amounted to 9.34 nM (input ligand: arginine 13.2 mM), 13.3 nM under setting [1] and 9.83 nM under setting [2].
For “GCUGUACCAUGAAGGAGCGCUUUAAUUAUAGAAGAUACAUGAGGAUCACCCAUGUUCCUCGAGCAGGUAGGUCGCAUGGUACAGC [SSAB #18]”, the “apparent KD of MS2 coat protein” value (input ligand: arginine 13.2 mM) came out at 25.4 nM; the “apparent KD of MS2 coat protein” value (input ligand: none) stood at 20.3 nM; the “apparent KD of MS2 coat protein” value under setting [1] was 33 nM; the “apparent KD of MS2 coat protein” value under setting [3] came to 27 nM; the “apparent KD of MS2 coat protein” value under setting [2] is 22.9 nM.
As for “GUCUUGGGAUCGGCCGCCACUACAUGAGGAUCACCCAUGUGGACAAAUAGGGUUGUUAAGCUCGGUAGGACCGGGAUUCGGACAU [Oncetexeza]”, the “apparent KD of MS2 coat protein” value by setting is: (input ligand: arginine 13.2 mM) 22.1 nM; (input ligand: none) 26 nM; under setting [1], 41.1 nM; under setting [3], 27.3 nM; under setting [2], 111 nM.
With “UUAUAAGUACCGGUCCUCAGAUCCUCAUGACGAGGACCGGUACGGCCGCCACUCGAAACAUGAGGAUCACCCAUGUAAUAAUAUC [Brourdmod09]”, the “apparent KD of MS2 coat protein” value was found to be 20.6 nM (input ligand: arginine 13.2 mM), 56.6 nM under setting [1] and 59.3 nM under setting [3].
Take “GCGGACAUGAGGAUCACCCAUGUAAAUCCUCGAGGACCGGUACGGCCGCCACUCGAACGAGUGGCGCGCGAGCGCGCGCUCGCGC [aBa]”: the “apparent KD of MS2 coat protein” value by setting is: (input ligand: arginine 13.2 mM) 39.4 nM; (input ligand: none) 30.2 nM; under setting [1], 60.3 nM; under setting [3], 36.4 nM; under setting [2], 45.7 nM.
On to “AGAGCAUUGACGGCCGCCACUCAUGUCACAUGAGGAUCACCCAUGUGAUGGGUGAUAGCCCGGUCGAGGACCGGGUCAAUGCUCA [Omei Tryp SS B v5]”, for which the “apparent KD of MS2 coat protein” value is, setting by setting: (input ligand: arginine 13.2 mM) 14.3 nM; under setting [1], 29.7 nM; under setting [3], 20.6 nM.
For “GGGACAUCGGGAAGGAGCGCAUCCAAACCACACAUGAGGAUCACCCAUGUAUAAAUAUGCAUGCAGGUAGGUCGCCCGGUGUCUC [Ersoatus]”, the “apparent KD of MS2 coat protein” value (input ligand: arginine 13.2 mM) was 79.5 nM; the “apparent KD of MS2 coat protein” value (input ligand: none) was 104 nM; the “apparent KD of MS2 coat protein” value under setting [1] worked out at 131 nM; the “apparent KD of MS2 coat protein” value under setting [3] amounted to 117 nM; the “apparent KD of MS2 coat protein” value under setting [2] was 121 nM.
Turning to “CCCUGGGUGGGAAGGAGCGCAUAUUCAACAUGAGGAUCACCCAUGUACAGACGUGAGUCAUUGCAGGUAGGUCGCCCACCCAGGG [SS-ArgB21]”, the “apparent KD of MS2 coat protein” value by setting is: (input ligand: arginine 13.2 mM) 12.9 nM; (input ligand: none) 15.7 nM; under setting [1], 20.4 nM; under setting [3], 14.8 nM; under setting [2], 15.5 nM.
On to “UUAAGAGGCUAUCAAAUUUGAUUUUGUGAUACCAGAAUAAUUUUAUUCCCUUGGCAGCAUGACAUGAGGAUCACCCAUGUGUCUU [SSTheo A #2]”, for which the “apparent KD of MS2 coat protein” value (input ligand: arginine 13.2 mM) was found to be 33.8 nM, the “apparent KD of MS2 coat protein” value under setting [1] came to 40.2 nM and the “apparent KD of MS2 coat protein” value under setting [2] stood at 34.6 nM.
